Tests used:
[1] = biological target: T1, PUM2 RNA-binding domain (Homo sapiens, UniProt Q8TB72 706-1059); assay: competition EMSA
[2] = biological target: T1, PUM2 RNA-binding domain; assay: EMSA
[3] = biological target: T1, PUM2 RNA-binding domain; assay: EMSA; remark: listed apart in the source

T1 sequence (Q8TB72 706-1059): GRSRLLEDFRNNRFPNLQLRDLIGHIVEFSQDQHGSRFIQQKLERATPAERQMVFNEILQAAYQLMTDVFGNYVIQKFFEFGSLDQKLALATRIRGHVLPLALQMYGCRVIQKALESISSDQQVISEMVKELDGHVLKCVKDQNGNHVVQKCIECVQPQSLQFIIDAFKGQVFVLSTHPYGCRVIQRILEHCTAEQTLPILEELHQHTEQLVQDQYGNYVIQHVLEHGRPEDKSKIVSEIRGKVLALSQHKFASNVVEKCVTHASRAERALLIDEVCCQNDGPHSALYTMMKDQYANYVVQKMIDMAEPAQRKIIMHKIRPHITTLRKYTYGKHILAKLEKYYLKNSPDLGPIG

Binder | binding result [1] | further results
UGUAUAUA (ssRNA) [8-mer consensus] | binds | 
UGUAUAGA (ssRNA) [8-mer 7G] | binds | 
CUUGUAUAUAG (ssRNA) |  | binding result [2]: binds
UGUAGAUA (ssRNA) [8-mer 5G] | binds | 
UCUCUUUGUAUAUAUCUCUU (ssRNA) [S1a RNA] |  | binding result [3]: binds
